Source: article PMC11574021, “CEP192 localises mitotic Aurora-A activity by priming its interaction with TPX2” (The EMBO Journal, 2024)
Like-named read-outs stand apart in the source and are kept apart here.

B1: Aurora-A^CAKD (Aurora-A kinase domain, aa 122–403 C290A, C393A), unphosphorylated (domain or fragment, human, UniProt O14965 122-403, looked up)
chain: ESKKRQWALEDFEIGRPLGKGKFGNVYLAREKQSKFILALKVLFKAQLEKAGVEHQLRREVEIQSHLRHPNILRLYGYFHDATRVYLILEYAPLGTVYRELQKLSKFDEQRTATYITELANALSYCHSKRVIHRDIKPENLLLGSAGELKIADFGWSVHAPSSRRTTLAGTLDYLPPEMIEGRMHDEKVDLWSLGVLCYEFLVGKPPFEANTYQETYKRISRVEFTFPDFVTEGARDLISRLLKHNPSQRPMLREVLEHPWITANSSKPSNAQNKESASKQS
notes: Aurora-A kinase domain, human, residues 122-403, variant lacking surface cysteines; also called Aurora-A 122–403 C290A C393A; unphosphorylated Aurora-A^CAKD; source: E. coli RIL, co-expressed with lambda phosphatase, purified (HisTrap, TEV cleavage, SEC); not shown: His6, N-terminal, cleaved
B2: human CEP192 468–533 Y487A/F490A (domain or fragment, UniProt Q8TEP8 468-533, looked up)
chain: PQSVVYQNEEGRWVTDLAYATSANSKQNLNVSLSDEMNEDFRSGSEAFDLIAQDEEEFNKEHQFIQ
notes: source: E. coli B834 RIL, purified (HisTrap, TEV cleavage, SEC); not shown: His6, N-terminal, cleaved; SUMO, N-terminal, cleaved

Key:
[1] = target: B2; assay: ITC; 250 μM Aurora-A in the syringe, 25 μM CEP192 construct in the cell; 25 °C; 20 mM tris pH 7.5, 200 mM NaCl, 10% glycerol, 5 mM MgCl2; details: both partners purified
human CEP192 468–533 = target: T1, human CEP192 468–533 (human, UniProt Q8TEP8 468-533); assay: as above; details: both partners purified
T1 construct: also called CEP192_(506-527_F); source: E. coli B834 RIL, purified (HisTrap, TEV cleavage, SEC); for crystallisation co-expressed with Aurora-A^M7KD and co-purified; not shown: His6, N-terminal, cleaved; SUMO, N-terminal, cleaved
T1 sequence (looked up): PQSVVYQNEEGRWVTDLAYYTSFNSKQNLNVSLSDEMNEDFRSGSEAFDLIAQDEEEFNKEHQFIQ

[2] = target: T2, Aurora-A^CAKD (Aurora-A kinase domain, aa 122–403 C290A, C393A), unphosphorylated (human, UniProt O14965 122-403, C290A | C393A); assay: FP; competition with FAM-TPX2 7-43
T2 sequence: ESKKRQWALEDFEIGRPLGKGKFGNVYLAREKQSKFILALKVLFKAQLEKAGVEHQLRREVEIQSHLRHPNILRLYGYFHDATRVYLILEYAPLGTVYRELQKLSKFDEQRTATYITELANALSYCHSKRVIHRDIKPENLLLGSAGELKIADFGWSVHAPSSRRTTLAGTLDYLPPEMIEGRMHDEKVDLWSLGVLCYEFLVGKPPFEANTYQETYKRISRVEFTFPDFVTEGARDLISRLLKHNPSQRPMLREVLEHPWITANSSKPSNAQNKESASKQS

[3] = target: B1; assay: ITC; 250 μM Aurora-A in the syringe, 25 μM CEP192 construct in the cell; 25 °C; 20 mM tris pH 7.5, 200 mM NaCl, 10% glycerol, 5 mM MgCl2; details: both partners purified
Aurora-A = details: from ITC; ref (Burgess et al, [2015]; McIntyre et al, [2017]; Zorba et al, [2014]); cited from earlier work
Method: This is a higher affinity than observed in a previous study that used CEP192 proteins fused to MBP, a large protein tag that might have affected the interaction (Park et al, [2023]). For context, the affinity of Aurora-A for its other key mitotic partners are: TPX2_1-43 (Kd 0.3–2 μM from ITC) and TACC ...

[4] = target: T3, phosphorylated Aurora-A CAKD (Homo sapiens, UniProt O14965, C290A/C393A); assay: ADP-Glo kinase assay, kemptide substrate; type: biochemical
T3 construct: 10 nM Aurora-A 122–403 C290A C393A phosphorylated protein; His (N, cleaved yes); made in house; host or cells: E. coli B834 (no lambda phosphatase)
T3 sequence (O14965 122-403 C290A/C393A): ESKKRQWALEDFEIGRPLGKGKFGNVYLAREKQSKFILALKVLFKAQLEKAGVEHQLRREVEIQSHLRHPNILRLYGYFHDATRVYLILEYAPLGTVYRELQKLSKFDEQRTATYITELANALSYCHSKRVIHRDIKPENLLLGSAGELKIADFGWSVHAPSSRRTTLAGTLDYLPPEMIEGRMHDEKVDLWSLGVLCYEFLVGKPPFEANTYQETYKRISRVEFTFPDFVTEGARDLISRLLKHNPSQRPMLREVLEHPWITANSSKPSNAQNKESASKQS
Method: Reactions were initiated by the addition of 10 μM ATP and 100 μM kemptide as substrate (Cambridge Bioscience Ltd). The reactions were incubated at room temperature for 60 min before 5 μl was transferred into 5 ul of ADP-Glo Reagent (Promega) in a 384-well low volume low binding plate (Greiner Bio-one). After a further 40 min at room temperature, 10 μl of kinase detection reagent was added to each well, and the reaction was allowed to incubate for an additional 30 min. Luminescence was measured on a HIDEX Sense plate reader (HIDEX) using a 1 s integration time. Control data was subtracted from the luminescence and three repeats were averaged before being fitted to a sigmoidal plot using Origin (OriginLab), where IC50 and EC50 values were calculated.

For B1, the “stoichiometry N” value [1] was 0.84 and the “stoichiometry N” value (human CEP192 468–533) was 0.85.

In the case of B2, the IC50 [2] is reported as 14.1 µM and the Kd [3] is reported as 2 µM.

B3: TPX2 1-43: Aurora-A activating domain of TPX2 (aa 1–43) (protein)
chain: MSQVKSSYSYDAPSDFINFSSLDDEGDTQNIDSWFEEKANLENKLLGKNGTGGLFQGKTPLRKANLQQAIVTPLKPVDNTYYKEAEKENLVEQSIPSNACSSLEVEAAISRKTPAQPQRRSLRLSAQKDLEQKEKHHVKMKAKRCATPVIIDEILPSKKMKVSNNKKKPEEEGSAHQDTAEKNASSPEKAKGRHTVPCMPPAKQKFLKSTEEQELEKSMKMQQEVVEMRKKNEEFKKLALAGIGQPVKKSVSQVTKSVDFHFRTDERIKQHPKNQEEYKEVNFTSELRKHPSSPARVTKGCTIVKPFNLSQGKKRTFDETVSTYVPLAQQVEDFHKRTPNRYHLRSKKDDINLLPSKSSVTKICRDPQTPVLQTKHRARAVTCKSTAELEAEELEKLQQYKFKARELDPRILEGGPILPKKPPVKPPTEPIGFDLEIEKRIQERESKKKTEDEHFEFHSRPCPTKILEDVVGVPEKKVLPITVPKSPAFALKNRIRMPTKEDEEEDEPVVIKAQPVPHYGVPFKPQIPEARTVEICPFSFDSRDKERQLQKEKKIKELQKGEVPKFKALPLPHFDTINLPEKKVKNVTQIEPFCLETDRRGALKAQTWKHQLEEELRQQKEAACFKARPNTVISQEPFVPKKEKKSVAEGLSGSLVQEPFQLATEKRAKERQELEKRMAEVEAQKAQQLEEARLQEEEQKKEELARLRRELVHKANPIRKYQGLEIKSSDQPLTVPVSPKFSTRFHC
In the case of B3, the Kd (Aurora-A) is listed as 0.3 to 2 µM, the EC50 ([4]; 10 nM phosphorylated Aurora-A CAKD, 10 μM ATP, 100 μM kemptide, 60 min, n = 3, read-out: ADP-Glo EC50 (stimulation of Aurora-A activity)) is listed as 0.0068 ± 0.0005 µM and the EC50 ([4]; ADP-Glo, 10 nM Aurora-A, first manuscript version, quoted by referee, read-out: concentration of 50 % max activation) is listed as 0.001 µM.
